One block for each molecule: values may come before it.
B1: Eu3+K-labeled hCBP1-113 (NH2-terminal amino acids 1-113 of human CBP, cleaved from GST with thrombin, directly labeled with europium cryptate) (other)
chain: MAENLLDGPPNPKRAKLSSPGFSANDSTDFGSLFDLENDLPDELIPNGGELGLLNSGNLVPDAASKHKQLSELLRGGSGSSINPGIGNVSASSPVQQGLGGQAQGQPNSANMA
modifications: directly labeled with europium cryptate (Eu3+K); labeled residues not stated
notes: Made as a GST fusion in E. coli (pGEX) and cleaved with thrombin; The preparation gave two bands, 12 kd (expected) and 10 kd (likely a premature termination product)
B2: GST-hCBP1-113 (glutathione S-transferase fused to amino acids 1-113 of human CBP) (other)
chain: B1 chain
notes: Uncleaved fusion, detected in the assay by Eu3+K-labeled goat anti-GST antibody (Pharmacia 27-4577-01); also called GST-CBP fusion protein; not shown: glutathione S-transferase (GST) of the pGEX expression vector (Pharmacia Biotech); pGEX linker with thrombin site between GST and CBP
B3: GST-hPPARγ1LBD (glutathione S-transferase fused to amino acids 176-478 of human PPARγ1) (receptor)
chain: SHNAIRFGRIAQAEKEKLLAEISSDIDQLNPESADLRQALAKHLYDSYIKSFPLTKAKARAILTGKTTDKSPFVIYDMNSLMMGEDKIKFKHITPLQEQSKEVAIRIFQGCQFRSVEAVQEITEYAKSIPGFVNLDLNDQVTLLKYGVHEIIYTMLASLMNKDGVLISEGQGFMTREFLKSLRKPFGDFMEPKFEFAVKFNALELDDSDLAIFIAVIILSGDRPGLLNVKPIEDIQDNLLQALELQLKLNHPESSQLFAKLLQKMTDLRQIVTEHVQLLQVIKKTETDMSLHPLLQEIYKDLY
notes: Uncleaved fusion, detected in the assay by Eu3+K-labeled anti-GST antibody; not shown: glutathione S-transferase (GST) of the pGEX-KG vector (Guan & Dixon 1991); pGEX-KG linker between GST and the LBD
B4: biotin-labeled hPPARγ1LBD (human PPARγ1 ligand binding domain, amino acids 176-478, cleaved free of GST) (receptor)
chain: B3 chain
modifications: biotinylated with Sulfo-NHS-LC-Biotin to a biotin:hPPARγ1LBD ratio of 3:1; sites not stated
notes: Made from pGEX-KG as a GST fusion and cleaved free of GST; In the assay it carried streptavidin-labeled XL665 through the biotin; also called biotin-hPPARγ1LBD

Assays:
PPARγ1LBD = PPARγ1LBD (Homo sapiens, UniProt P37231); test: Binding constant for hCBP/PPARγ1LBD interaction by FRET competition with non-biotinylated hCBP1-453 (FIG. 6); design: amino acids 176-478 of PPARγ1; made in house; host or cells: E. coli (DH5α); settings: saturating PPARγ agonist (10 μM BRL49653); derived from FIG. 6; read-out: Kd for the interaction between hCBP1-453 and PPARγ1LBD
Description: The above-described assay can also be used to characterize the interaction between nuclear receptors with co-activators as, e.g., by determining the binding constant for that interaction. […] Saturating amounts of PPARγ agonist (10 μM BRL49653) were used. Increasing concentrations of non-biotinylated hCBP1-453 were used to titrate away biotin-hCBP-PPARγ1LBD complex and decrease the fluorescence energy transfer. A Kd of 300 nM for the interaction between hCBP1-453 and PPARγ1LBD can be derived from the results illustrated in FIG. 6 and this Kd (300 nM) is a measurement of the affinity between CBP and PPARγ.

[1] = molecular target: B4; test: FRET, Eu3+K-hCBP1-113 (100 nM) + biotin-hPPARγ1LBD (100 nM) + SA-XL665 (100 nM), 1 µM AD5075, PBS
[2] = molecular target: B4; test: FRET, Eu3+K-hCBP1-113 + biotin-hPPARγ1LBD + SA-XL665, 1 µM AD5075, HEPES + 0.05% NP40
[3] = molecular target: B4; test: FRET, same format without agonist (vehicle), HEPES + 0.05% NP40; background control
[4] = molecular target: B4; test: FRET, same format without agonist (0.1% DMSO vehicle), PBS; background control
[5] = molecular target: B4; test: FRET, experiment 3 format, HEPES + 0.05% NP40
Source text: (§1) In order to get an even better signal-noise ratio, the above-described format was modified slightly for experiment 3.

[6] = molecular target: B4; test: FRET, GST-hCBP1-113 + Eu3+K anti-GST antibody + biotin-hPPARγ1LBD (100 nM) + SA-XL665 (500 nM), 1 µM AD5075, HEPES + 0.05% NP40
Source text: as §1

[7] = molecular target: non-biotinylated hCBP1-453 (NH2-terminal amino acids 1-453 of human CBP, cleaved from GST) (human, UniProt Q92793 1-453); test: FRET competition: increasing non-biotinylated hCBP1-453 displaces biotin-hCBP from PPARγ1LBD, saturating agonist (10 µM BRL49653)
Description: The above-described assay can also be used to characterize the interaction between nuclear receptors with co-activators as, e.g., by determining the binding constant for that interaction. […] Saturating amounts of PPARγ agonist (10 μM BRL49653) were used.

[8] = molecular target: B1; test: FRET, Eu3+K-hCBP1-113 + biotin-hPPARγ1LBD + SA-XL665, PBS

Chain of PPARγ1LBD (P37231 204-505): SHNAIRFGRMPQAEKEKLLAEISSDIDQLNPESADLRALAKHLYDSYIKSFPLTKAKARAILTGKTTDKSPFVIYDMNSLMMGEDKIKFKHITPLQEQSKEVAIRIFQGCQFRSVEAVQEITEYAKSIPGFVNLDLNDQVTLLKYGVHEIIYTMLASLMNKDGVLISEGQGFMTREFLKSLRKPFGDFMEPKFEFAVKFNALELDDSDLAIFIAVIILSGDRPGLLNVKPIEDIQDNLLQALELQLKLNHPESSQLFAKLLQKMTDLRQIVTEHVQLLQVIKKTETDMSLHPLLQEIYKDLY
Chain of PPARγ1LBD (Q92793 1-453 partner): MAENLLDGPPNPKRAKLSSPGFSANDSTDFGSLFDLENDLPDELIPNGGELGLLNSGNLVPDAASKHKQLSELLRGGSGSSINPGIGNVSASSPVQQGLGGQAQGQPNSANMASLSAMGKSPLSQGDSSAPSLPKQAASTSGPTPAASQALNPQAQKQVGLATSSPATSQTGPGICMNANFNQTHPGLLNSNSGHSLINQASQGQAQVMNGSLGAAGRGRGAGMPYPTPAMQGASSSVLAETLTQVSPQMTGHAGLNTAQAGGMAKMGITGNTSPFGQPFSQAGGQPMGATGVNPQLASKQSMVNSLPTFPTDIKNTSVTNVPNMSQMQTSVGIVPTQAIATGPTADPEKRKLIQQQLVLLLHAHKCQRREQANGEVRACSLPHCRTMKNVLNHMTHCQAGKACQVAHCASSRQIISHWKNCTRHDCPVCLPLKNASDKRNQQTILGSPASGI

- Kd (PPARγ1LBD): 300 nM
Molecule: hCBP1-453: NH2-terminal 1-453 amino acids of human CBP, expressed in E. coli as GST fusion and cleaved

Molecule: B1
- Emission ratio with AD5075 [1]: 1130 665 nm/620 nm ratio x 10,000
- Emission ratio with AD5075 [2]: 967 665 nm/620 nm ratio x 10,000
- Emission ratio with vehicle [3]: 617 665 nm/620 nm ratio x 10,000
- Emission ratio with vehicle [4]: 1070 665 nm/620 nm ratio x 10,000

Molecule: B2
- Emission ratio with vehicle [3]: 536 665 nm/620 nm ratio x 10,000
- signal-noise ratio (with AD5075 against without) [5]: 2 fold
- Emission ratio with AD5075 [6]: 1080 665 nm/620 nm ratio x 10,000

Molecule: B3
- Kd [7]: 300 nM

Molecule: B4
- binding result [8]: binds

Reference: patent US6689574B1, “Assays for nuclear receptor agonists and antagonists using fluorescence resonance energy transfer” (Merck & Co., Inc., priority 1997, dated 2004)
